Article PMC6904456

Key:
Thrombin (THR) [1] = target: T1, Thrombin (THR) (UniProt P00734;P00734 328-363;364-622); test: SPR (D-shaped plastic optical fibre, Langmuir fit); 10 uM aptamer for immobilization; Langmuir K, printed as K [nM]; Immobilization in 10 mM phosphate, 138 mM NaCl, 2.7 mM KCl, pH 7.4; sensing in binding buffer (composition and temperature not given in material)
Thrombin (THR) [2] = target: T1, Thrombin (THR); test: SPR (D-shaped plastic optical fibre); 1-50 nM thrombin, no shift of resonance wavelength; Immobilization in 10 mM phosphate, 138 mM NaCl, 2.7 mM KCl, pH 7.4; sensing in binding buffer (composition and temperature not given in material)

Binder	Kd (Thrombin (THR) [1]) [nM]	binding result (Thrombin (THR) [2])
AGTCCGTGGTAGGGCAGGTTGGGGTGACT (ssDNA, 5' BiotinTEG) [TBA29 (biotin-TBA29 thrombin aptamer)]	21.8	
CACCAATATTTACGTTCTACTCTCCAATA (ssDNA, 5' BiotinTEG) [non specific aptamer sequence]		no binding
